Laboratory results: PMC12108577
“And” between values parts separate entries of the source, which are not always exact repeats. Equal entries are not always repeated.

Key:
CXCL1-Fc fusion protein = CXCL1-Fc fusion protein (UniProt P09341); assay: SDS-PAGE under reducing and non-reducing conditions; purified proteins separated under reducing and non-reducing conditions, Coomassie Blue staining
[1] = molecular target: CXCR2 on THP-1 cells (human (endogenous in THP-1)) (UniProt P25025); assay: flow cytometry on cells; THP-1 cells incubated on ice with purified proteins for 30 min; bound protein detected with a fluorophore-conjugated anti-His tag antibody; FACS buffer (PBS, 1% FBS, 150 μM CaCl2); Fc receptors blocked with Human SeroBlock; single dose and a range of concentrations
CXCR2 on THP-1 cells = CXCR2 on THP-1 cells (UniProt P25025); assay: flow cytometry on cells; settings: THP-1 cells (CXCR2+), FITC-conjugated anti-6X His antibody
[2] = molecular target: CXCR2 on THP-1 cells (human (endogenous in THP-1)) (UniProt P25025)
CXCL5-Fc fusion protein = CXCL5-Fc fusion protein (UniProt P42830); assay: SDS-PAGE under reducing and non-reducing conditions; purified proteins separated under reducing and non-reducing conditions, Coomassie Blue staining
[3] = n = 3, parent: est. 100000, read off a plot

Chain of CXCL1^1-Fc^1 (P09341 whole entry): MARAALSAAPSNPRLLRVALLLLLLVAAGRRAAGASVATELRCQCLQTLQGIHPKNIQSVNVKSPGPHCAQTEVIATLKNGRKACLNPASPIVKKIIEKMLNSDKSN
Chain of CXCL1^1-Fc^2 (P09341 whole entry, looked up, tested part not stated): as the sequence (P09341 whole entry) above

| response (CXCR2 on THP-1 cells; [3]) | response (CXCR2 on THP-1 cells; parent: 99.9) | IC50 of inhibition of THP-1 cell migration toward PDAC conditioned medium (Boyden chamber) [2] | Substance | other results |
| --- | --- | --- | --- | --- |
| – | – | – | CXCL1-Fc fusion protein (from UniProt P09341 35-107) | stoichiometry N (CXCL1-Fc fusion protein): 2; fold higher mean fluorescence intensity per cell than CXCL1^1-Fc^2 or CXCL1^1-Fc^1 [1]: 3 fold and 4 fold |
| 19000 MFI | 98.5% | – | CXCL1-Fc fusion protein (from UniProt P09341) CXCL1-Fc chain:T366Y; Fc chain:Y407T | – |
| 22000 MFI | 97.9% | – | CXCL1-Fc fusion protein (from UniProt P09341) T366Y | – |
| – | – | 211 nM | CXCL1^1-Fc^1 (from UniProt P09341 35-107) (Fc fusion) | – |
| – | – | 28 nM | CXCL1^1-Fc^2 (from UniProt P09341 35-107) (Fc fusion) | – |
| – | – | – | CXCL5-Fc fusion protein (from UniProt P42830 37-114) | stoichiometry N (CXCL5-Fc fusion protein): 2 |
